From US20200115416A1 (REGENTS OF THE UNIVERSITY OF MINNESOTA, published 2020)
Where two headings read alike, the source gives them in different places. Square brackets hold non-standard residues; d marks the D form.

Legend:
[1] = molecular target: T1, human melanocortin-4 receptor (human, UniProt P32245 1-332); experiment: displacement of 125I-NDP-MSH, HEK293 cells expressing hMC4R
T1 construct: whole, on cells; in the thallium flux assay co-expressed with Kir7.1 (M125R); also called hMC4R; wildtype hMC4R
Protocol: (§1) Competitive binding affinity experiments were performed on HEK-293 cells stably expressing the wildtype hMC4R. […] The assay media was carefully aspirated and cells were washed once with assay buffer. Cell were lysed with 500 μL 0.1 M NaOH and 500 μL 1% Triton X-100 for a minimum of 10 min. […] All experiments were performed with duplicate data points and in at least two independent experimental replicates. […] Concentration-response curves and IC₅₀ values were generated and analyzed by the PRISM program (version 4.0. GraphPad Inc.) by a nonlinear regression method. The standard error of the mean (SEM) was derived from the IC₅₀ values from at least two independent experimental replicates.

[2] = molecular target: T1, human melanocortin-4 receptor; experiment: displacement of 125I-AGRP, HEK293 cells expressing hMC4R
Protocol: as §1

[3] = molecular target: T2, mouse melanocortin-1 receptor (mouse, UniProt Q01727 1-315); experiment: cell-based or functional assay
T2 sequence (Q01727 whole entry): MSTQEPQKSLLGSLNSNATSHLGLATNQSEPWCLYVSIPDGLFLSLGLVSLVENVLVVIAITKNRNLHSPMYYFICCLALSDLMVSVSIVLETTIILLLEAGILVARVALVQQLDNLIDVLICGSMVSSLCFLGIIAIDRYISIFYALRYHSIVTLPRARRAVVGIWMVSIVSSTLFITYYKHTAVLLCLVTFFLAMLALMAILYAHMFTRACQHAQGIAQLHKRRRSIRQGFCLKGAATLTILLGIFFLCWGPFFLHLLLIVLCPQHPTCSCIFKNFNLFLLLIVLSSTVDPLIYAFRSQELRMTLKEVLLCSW

[4] = molecular target: T3, mouse melanocortin-5 receptor (mouse, UniProt P41149 1-325); experiment: cell-based or functional assay
T3 sequence (P41149 whole entry): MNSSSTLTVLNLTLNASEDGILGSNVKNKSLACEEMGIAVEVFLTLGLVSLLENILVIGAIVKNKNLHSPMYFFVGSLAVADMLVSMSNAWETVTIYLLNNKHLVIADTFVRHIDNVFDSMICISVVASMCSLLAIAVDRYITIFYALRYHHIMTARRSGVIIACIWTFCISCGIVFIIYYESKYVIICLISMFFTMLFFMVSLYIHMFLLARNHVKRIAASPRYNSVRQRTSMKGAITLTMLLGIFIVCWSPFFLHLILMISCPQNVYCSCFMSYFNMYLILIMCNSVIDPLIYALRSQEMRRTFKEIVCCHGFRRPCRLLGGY

[5] = molecular target: T4, mouse melanocortin-3 receptor (mouse, UniProt P33033 1-323); experiment: cell-based or functional assay
T4 sequence (P33033 whole entry): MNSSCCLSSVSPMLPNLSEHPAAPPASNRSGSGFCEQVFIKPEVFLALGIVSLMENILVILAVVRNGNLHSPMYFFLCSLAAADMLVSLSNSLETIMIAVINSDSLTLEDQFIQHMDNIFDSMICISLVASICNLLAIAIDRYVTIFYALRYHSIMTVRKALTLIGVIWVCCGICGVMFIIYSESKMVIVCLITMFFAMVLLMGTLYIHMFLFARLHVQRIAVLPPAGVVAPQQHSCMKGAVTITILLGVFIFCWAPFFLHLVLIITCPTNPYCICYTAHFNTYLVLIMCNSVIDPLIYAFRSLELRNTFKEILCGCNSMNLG

[6] = molecular target: T5, mouse melanocortin-4 receptor (mouse, UniProt P56450 1-332); experiment: cell-based or functional assay
T5 sequence (P56450 whole entry): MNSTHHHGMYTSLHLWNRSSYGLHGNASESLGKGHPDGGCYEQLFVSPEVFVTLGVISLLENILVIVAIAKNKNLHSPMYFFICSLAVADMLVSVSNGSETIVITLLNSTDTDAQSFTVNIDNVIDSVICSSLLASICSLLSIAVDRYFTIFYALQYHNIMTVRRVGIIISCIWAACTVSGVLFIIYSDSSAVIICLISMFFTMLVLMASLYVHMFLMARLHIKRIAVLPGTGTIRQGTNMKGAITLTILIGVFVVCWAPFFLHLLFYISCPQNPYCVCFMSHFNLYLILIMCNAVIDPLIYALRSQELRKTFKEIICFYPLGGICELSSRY

[7] = molecular target: T2, mouse melanocortin-1 receptor; experiment: cell-based or functional assay; remark: listed apart in the source
[8] = molecular target: T3, mouse melanocortin-5 receptor; experiment: cell-based or functional assay; remark: listed apart in the source
[9] = molecular target: T4, mouse melanocortin-3 receptor; experiment: cell-based or functional assay; remark: listed apart in the source
[10] = molecular target: T5, mouse melanocortin-4 receptor; experiment: cell-based or functional assay; remark: listed apart in the source
[11] = molecular target: T2, mouse melanocortin-1 receptor; experiment: cell-based or functional assay; remark: listed apart in the source
[12] = molecular target: T3, mouse melanocortin-5 receptor; experiment: cell-based or functional assay; remark: listed apart in the source
[13] = molecular target: T4, mouse melanocortin-3 receptor; experiment: cell-based or functional assay; remark: listed apart in the source
[14] = molecular target: T5, mouse melanocortin-4 receptor; experiment: cell-based or functional assay; remark: listed apart in the source
[15] = molecular target: T1, human melanocortin-4 receptor; experiment: cell-based or functional assay

Row | Binder | IC50 [1] | IC50 [2] | agonist EC50 (cAMP AlphaScreen) [3] | agonist EC50 (cAMP AlphaScreen) [5] | antagonist pA2 (Schild, agonist NDP-MSH) [5] | agonist EC50 (cAMP AlphaScreen) [6] | antagonist pA2 (Schild, agonist NDP-MSH) [6] | agonist EC50 (cAMP AlphaScreen) [8] | antagonist pA2 (Schild, agonist NDP-MSH) [9] | % maximal NDP-MSH response at 100 µM (cAMP AlphaScreen) [10] | further results
1 | PRFFXAFP (head-to-tail cyclic; DPhe at 3; Dap at 5; DPro at 8) [c[Pro-Arg-DPhe-Phe-Dap-Ala-Phe-DPro]] | – | – | – | – | – | – | – | > 100 µM | 5.92 | 20% | agonist EC50 (cAMP AlphaScreen) [7]: 0.23 µM; agonist EC50 (cAMP AlphaScreen) [9]: > 100 µM
2 | cyclo(PRFFNAD[dP]) (SMILES C[C@@H]1NC(=O)[C@H](CC(N)=O)NC(=O)[C@H](Cc2ccccc2)NC(=O)[C@H](Cc2ccccc2)NC(=O)[C@H](CCCNC(=N)N)NC(=O)[C@@H]2CCCN2C(=O)[C@H]2CCCN2C(=O)[C@H](CC(=O)O)NC1=O) [c[Pro-Arg-Phe-Phe-Asn-Ala-Asp-DPro]] | – | – | – | – | – | – | – | – | – | – | % activation at 100 µM (cAMP AlphaScreen) [11]: 40%; inverse agonist, % change from basal cAMP at 100 µM [12]: -25%; antagonist pA2 (Schild, agonist NDP-MSH) [13]: < 5.5; antagonist pA2 (Schild, agonist NDP-MSH) [14]: < 5.5
3 | PRFFXAFP (head-to-tail cyclic; DArg at 2; Dap at 5; DPro at 8) [c[Pro-DArg-Phe-Phe-Dap-Ala-Phe-DPro]] | – | – | – | – | – | – | – | > 100 µM | 5.7 | 25% | % maximal NDP-MSH response at 100 µM (cAMP AlphaScreen) [7]: 25%; % maximal NDP-MSH response at 100 µM (cAMP AlphaScreen) [9]: 25%

The next lines start with results.

Row | IC50 [1] | IC50 [2] | agonist EC50 (cAMP AlphaScreen) [3] | agonist EC50 (cAMP AlphaScreen) [5] | antagonist pA2 (Schild, agonist NDP-MSH) [5] | agonist EC50 (cAMP AlphaScreen) [6] | antagonist pA2 (Schild, agonist NDP-MSH) [6] | agonist EC50 (cAMP AlphaScreen) [8] | antagonist pA2 (Schild, agonist NDP-MSH) [9] | % maximal NDP-MSH response at 100 µM (cAMP AlphaScreen) [10] | Binder | further results
4 | 3.6 µM | 1.3 µM | > 100 µM | > 100 µM | < 5.5 | > 100 µM | 6.79 | – | – | – | cyclo(PRFFDAF[dP]) [c[Pro-Arg-Phe-Phe-Asp-Ala-Phe-DPro]] | inverse agonist, % change from basal cAMP at 100 µM [4]: -25%
5 | 2.5 µM | 1.4 µM | 20.5 µM | > 100 µM | < 5.5 | > 100 µM | 7 | – | – | – | cyclo(PRFFEAF[dP]) [c[Pro-Arg-Phe-Phe-Glu-Ala-Phe-DPro]] | inverse agonist apparent potency [4]: 0.7 µM; inverse agonist, % decrease from basal cAMP [4]: -10%
6 | – | 0.012 µM | – | – | 8.7 | – | 8.7 | – | – | – | RCVRLHESCLGQQVPCCDPCATCYCRFFNAFCYCRKLGTAMNPCSRT (ligand, human, UniProt O00253 86-132, looked up, range 86-132; also called C-terminal domain of AGRP) [hAGRP(86-132)] | antagonist pA2 (Schild, agonist NDP-MSH) [15]: 8.8; inverse agonist apparent potency (EC50) [15]: 0.0024 µM; inverse agonist, % decrease from basal signal [15]: -35%
